Results published in publication PMC6994669.

Biological target: PTPδ D2-His6 F1503A (mouse)
Assay: SPR; Biacore T200, 25 °C, 10 mM Hepes-NaOH pH 7.5, 150 mM NaCl, 0.005% Tween-20; wild-type or mutant PTPδ D2-His6 amine-coupled on a CM5 chip; wild-type or mutant Liprin-α3 tSAM injected, twofold dilutions from 40 µM to 39 nM; equilibrium KD

mouse Liprin-α3 tSAM (residues 808–1114), sequence (P60469 808-1114): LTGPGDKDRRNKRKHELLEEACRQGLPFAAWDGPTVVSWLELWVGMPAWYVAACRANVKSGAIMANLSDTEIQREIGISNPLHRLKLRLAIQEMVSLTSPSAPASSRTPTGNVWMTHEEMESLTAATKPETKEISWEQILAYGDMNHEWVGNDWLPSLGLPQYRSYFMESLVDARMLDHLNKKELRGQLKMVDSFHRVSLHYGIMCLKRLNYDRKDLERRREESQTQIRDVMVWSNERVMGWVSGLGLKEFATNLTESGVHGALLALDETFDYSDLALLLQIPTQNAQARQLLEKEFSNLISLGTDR

## mouse Liprin-α3 tSAM (residues 808–1114) (from UniProt P60469 808-1114) (domain or fragment)
  Kd: 8.3 µM
